Experimental data taken from article PMC7295030, “Aggregation pathways of human γ D crystallin induced by metal ions revealed by time dependent methods” (PeerJ, 2020).

Molecular target: the molecule itself
Assay: dynamic light scattering; HγD 50 µM with 1.5 equivalents of CuSO4, 10 mM ammonium acetate pH 7.2, 50 mM NaCl, 37 °C, measured every 1.6 min during 12 h

B1: Human γD crystallin (natural protein)
chain: GKITLYEDRGFQGRHYECSSDHPNLQPYLSRCNSARVDSGCWMLYEQPNYSGLQYFLRRGDYADHQQWMGLSDSVRSCRLIPHSGSHRIRLYEREDYRGQMIEFTEDCSCLQDRFRFNEIHSLNVLEGSWVLYELSNYRGRQYLLMPGDYRRYQDWGATNARVGSLRRVIDFS
notes: Human γD crystallin (HγD), UniProt P07320; Only the vector pET16b is named; For NMR the protein was 15N-labelled (1H-15N HSQC); also called HγD; human gamma D crystallin; source: E. coli BL21-RIL (plasmid pET16b-HγD), purified (Q-Sepharose, Sephadex 200)
- binding result: binds
